Test results from paper PMC4081078.

Experiments:
TRF2 [1] = target: T1, TRF2 (UniProt Q15554 1-542); assay: EMSA
TRF2 [2] = target: T1, TRF2; assay: EMSA; remark: listed apart in the source
TRF1 = TRF1 (UniProt P54274 1-439); assay: EMSA
TRF2ΔB = TRF2ΔB (UniProt Q15554 87-542); assay: EMSA
TRF2 [3] = target: T1, TRF2; assay: EMSA; remark: listed apart in the source
TRF2 [4] = target: T1, TRF2; assay: pull-down, immunoblot

T1 sequence (Q15554 whole entry): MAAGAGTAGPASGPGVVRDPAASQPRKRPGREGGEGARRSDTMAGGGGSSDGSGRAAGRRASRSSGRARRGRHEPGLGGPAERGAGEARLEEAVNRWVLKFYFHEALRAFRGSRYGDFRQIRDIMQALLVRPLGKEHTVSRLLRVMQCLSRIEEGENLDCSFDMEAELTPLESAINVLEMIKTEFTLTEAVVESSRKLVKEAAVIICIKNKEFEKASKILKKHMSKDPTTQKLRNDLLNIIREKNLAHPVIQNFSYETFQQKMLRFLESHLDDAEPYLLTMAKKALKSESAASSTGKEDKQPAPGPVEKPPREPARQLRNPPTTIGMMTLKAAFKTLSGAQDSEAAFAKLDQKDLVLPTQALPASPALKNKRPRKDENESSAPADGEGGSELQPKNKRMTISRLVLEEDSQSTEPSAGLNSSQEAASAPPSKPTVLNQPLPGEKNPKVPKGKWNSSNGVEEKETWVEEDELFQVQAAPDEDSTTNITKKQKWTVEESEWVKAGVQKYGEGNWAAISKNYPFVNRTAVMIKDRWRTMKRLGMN
TRF2ΔB, sequence (Q15554 87-542, stated change not applied): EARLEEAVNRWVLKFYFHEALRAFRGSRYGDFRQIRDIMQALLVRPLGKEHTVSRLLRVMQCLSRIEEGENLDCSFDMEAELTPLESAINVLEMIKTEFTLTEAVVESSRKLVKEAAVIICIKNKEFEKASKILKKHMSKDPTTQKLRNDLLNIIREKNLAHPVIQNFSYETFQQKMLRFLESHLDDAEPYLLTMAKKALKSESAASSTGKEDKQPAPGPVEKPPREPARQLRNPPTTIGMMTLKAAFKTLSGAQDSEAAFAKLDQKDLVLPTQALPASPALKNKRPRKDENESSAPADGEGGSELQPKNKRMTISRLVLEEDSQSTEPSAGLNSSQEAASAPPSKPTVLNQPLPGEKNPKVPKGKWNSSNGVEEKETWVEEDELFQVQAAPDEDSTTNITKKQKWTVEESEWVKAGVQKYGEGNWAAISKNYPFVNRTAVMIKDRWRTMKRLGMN
TRF1, sequence (P54274 whole entry): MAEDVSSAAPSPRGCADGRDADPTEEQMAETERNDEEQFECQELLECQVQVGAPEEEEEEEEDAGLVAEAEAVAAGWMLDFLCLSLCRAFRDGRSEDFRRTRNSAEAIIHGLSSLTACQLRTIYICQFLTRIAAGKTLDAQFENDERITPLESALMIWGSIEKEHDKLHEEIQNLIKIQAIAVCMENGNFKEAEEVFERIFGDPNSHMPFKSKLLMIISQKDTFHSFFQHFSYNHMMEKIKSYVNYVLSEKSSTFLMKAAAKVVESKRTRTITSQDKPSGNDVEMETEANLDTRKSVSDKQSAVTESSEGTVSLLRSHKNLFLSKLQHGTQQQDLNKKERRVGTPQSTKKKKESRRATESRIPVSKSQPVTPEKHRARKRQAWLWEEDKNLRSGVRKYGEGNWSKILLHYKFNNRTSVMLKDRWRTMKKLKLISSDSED

B1: *G77telo/C38telo (dsDNA)
DNA 1: AGCTGAGCATGTCCAGACATGTCCTAGGGTTAGGGTTAGGGTTAGGGTTAGGGTTAGGGTTAGGGTTAGGGTTAGGG
DNA 2: TAACCCTAACCCTAGGACATGTCTGGACATGCTCAGCT
modifications: phosphorothioate after nt 1 of each strand
binding result (TRF2 [1]): binds

B2: *G77telo/C77telo (dsDNA)
DNA 1: AGCTGAGCATGTCCAGACATGTCCTAGGGTTAGGGTTAGGGTTAGGGTTAGGGTTAGGGTTAGGGTTAGGGTTAGGG
DNA 2: CCCTAACCCTAACCCTAACCCTAACCCTAACCCTAACCCTAACCCTAACCCTAGGACATGTCTGGACATGCTCAGCT
modifications: phosphorothioate after nt 1 of each strand
binding result (TRF2 [2]): binds | binding result (TRF1): binds | binding result (TRF2ΔB): binds

B3: *G77telo/C50telo (dsDNA)
DNA 1: AGCTGAGCATGTCCAGACATGTCCTAGGGTTAGGGTTAGGGTTAGGGTTAGGGTTAGGGTTAGGGTTAGGGTTAGGG
DNA 2: TAACCCTAACCCTAACCCTAACCCTAGGACATGTCTGGACATGCTCAGCT
modifications: phosphorothioate after nt 1 of each strand
binding result (TRF2 [3]): binds | binding result (TRF2ΔB): binds

B4: b-G68telo/C50telo (dsDNA)
DNA 1: AGCTGAGCATGTCCAGACATGTCCTAGGGTTAGGGTTAGGGTTAGGGTTAGGGTTAGGGTTAGGGTTA
DNA 2: TAACCCTAACCCTAACCCTAACCCTAGGACATGTCTGGACATGCTCAGCT
modifications: phosphorothioate after nt 1 of each strand
binding result (TRF2 [4]): binds
